Positions count from the first letter of the chain named.
Key:
[1] = target: T1, Recombinant human CD4 (R&D Systems, Cat. 10327-CD) (human, UniProt P01730 26-390, limits assumed); experiment: BLI (Octet Red384); purified antibody captured on anti-mouse IgG Fc (AMC) sensors; human CD4 as analyte at 100, 50 and 25 nM; 1:1 global fit
T1 construct: Bought recombinant protein; also called huCD4

[2] = target: T2, Rhesus macaque CD4-HIS (Acro Biosystems, Cat. CD4-C52H7) (rhesus macaque, UniProt P16003 26-390); experiment: BLI (Octet Red384); Ab on anti-mouse Fc (AMC) sensor; rhesus CD4-HIS as analyte
T2 construct: Bought reagent; also called Rhesus CD4; rhesus CD4-HIS; not shown: His tag

[3] = target: T3, human CD4 on cells (SKW3 cells; human PBMCs) (human, UniProt P01730 26-458); experiment: FACS binning on SKW3 cells after supernatant; competitor OKT4-A488; background 2163, max binding 8200
T3 construct: whole, on cells; The SKW3 CD4 knockout cells served as the negative cell line; also called hCD4

[4] = target: T3, human CD4 on cells (SKW3 cells; human …); experiment: FACS confirmation, supernatant on human PBMCs, anti-mFc 647
[5] = target: T3, human CD4 on cells (SKW3 cells; human …); experiment: FACS confirmation, supernatant on SKW3 WT cells, anti-hu Kappa FITC; background gMFI 2500
[6] = target: T3, human CD4 on cells (SKW3 cells; human …); experiment: FACS binning on SKW3 cells after supernatant; competitor OKT4a, anti-hu A647 secondary; background 5000, max binding 35000
[7] = target: T3, human CD4 on cells (SKW3 cells; human …); experiment: FACS confirmation, supernatant on SKW3 WT cells, anti-mFc 647; background gMFI 3300
[8] = target: T3, human CD4 on cells (SKW3 cells; human …); experiment: FACS primary screen, non-clonal supernatant; SKW3 vs SKW3 CD4 KO cells, anti-mouse Fc 647 detection
[9] = target: T3, human CD4 on cells (SKW3 cells; human …); experiment: FACS binning on SKW3 cells after supernatant; competitor RPA-T4-PE-Dazzle 594; background 783, max binding 15000
huCD4-HIS = target: T4, huCD4-HIS (human, UniProt P01730 26-390, limits assumed); experiment: ELISA binning, competitor Ibalizumab; 100 ng/mL huCD4-HIS, anti-HIS HRP detection; background 45, max binding 3000000
T4 construct: Named only in the head of the Ibalizumab ELISA binning column; Neither the source nor the construct limits are told in this stretch; not shown: HIS tag

[10] = target: T3, human CD4 on cells (SKW3 cells; human …); experiment: FACS confirmation, supernatant on human PBMCs, anti-mFc 647, CD4+ gate
[11] = target: T3, human CD4 on cells (SKW3 cells; human …); experiment: FACS primary screen, non-clonal supernatant; SKW3 vs SKW3 CD4 KO cells, anti-human Kappa FITC detection
[12] = target: T5, Rhesus macaque CD4-HIS (Acro Biosystems, Cat. CD4-C52H7) (rhesus macaque, UniProt P16003 26-390); experiment: BLI (Octet Red384); purified antibody captured on anti-mouse IgG Fc (AMC) sensors, rhesus CD4-HIS analyte at 100, 50, 25 nM; global 1:1 fit
T5 construct: Bought recombinant protein; also called Rhesus CD4; rhesus CD4-HIS; not shown: His tag

B1: 75110_14P05A (antibody, V domains shown)
VH: EVQLVESGGGLVQPGGSLRLSCAASGFTFSSYDVHWVRQATGKGLEWVSTIGTAGDTYYPGSVKGRFTISRENAKNSLYLQMNSLRAGDTAVYYCARGGFYYYGMDVWGQGTTVTVSS
VL: EIVLTQSPGTLSLSPGERATLSCRASQSVSSSYLAWYQQKPGQTPRLLIYGASSRATGIPDRFSGSGSGTDFTLTISRLEPEDFAVFYCQQSGSSPFTFGPGTKVDVK
notes: Tested as AlivaMab Mouse (AMM) antibody purified from hybridoma supernatant and captured through its mouse IgG Fc; also called ADS75110 purified AMM Ab 75110_14P05A; Sib1.10
Kd [1]: < 1 pM | koff [1]: < 1e-07 s⁻¹ | kon [1]: 95000 M⁻¹ s⁻¹

B2: 75110_08H11A (antibody, V domains shown)
VH: B1 VH with V34M, F100Y, Y101S
VL: B1 VL with R24G, S32T, T44A, F87Y, S92F, V107I
notes: Tested as antibody purified from AlivaMab Mouse hybridoma supernatant (human variable domains, kappa; mouse Fc, captured on anti-mouse IgG Fc sensors); also called ADS75110 purified AMM Ab
binding result [2]: no binding (tested: 100 nM (highest of 100, 50, 25 nM))

B3: 75110_08H06A (antibody, V domains shown)
VH: B1 VH with S31N, V34M, F100Y, Y101D
VL: B1 VL with V29I, S30T, S32I, Q38R, T44A, F87Y, S92Y, V107I
notes: as for B2
binding result [2]: no binding (tested: 100 nM (highest of 100, 50, 25 nM))

B4: 75110_14H13A (antibody, V domains shown)
VH: B1 VH with S31N, V34M, E72K, N83I, F100D
VL: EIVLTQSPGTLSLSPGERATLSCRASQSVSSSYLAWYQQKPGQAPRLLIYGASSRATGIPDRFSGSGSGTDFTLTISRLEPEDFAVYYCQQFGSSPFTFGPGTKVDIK
notes: as for B2
binding result [2]: no binding (tested: 100 nM (highest of 100, 50, 25 nM))

B5: 75110_01H18A (antibody, V domains shown)
VH: QVQLQQWGAGLLKPSETLSLTCAVYGGSFSGYYWSWIRQSPGKGLEWIGEINQSGSTNYNPSLKSRVTISVDTSKNQFSLKLSSVTAADTAVYYCARVINWFDSWGQGTLVTVSS
VL: DIQMTQSPSSVSASVGDRVTITCRASQGISSWLAWYQQKPGKAPKLLIYAASSFQSGVPSRFSGSGSGTDFTLTISSLQTEDFATYYCQQANSFPYTFGQGTRLEIK
notes: Tested as non-clonal hybridoma supernatant from AlivaMab Mouse Kappa mice, detected with anti-mouse Fc and anti-human Kappa
OKT4 A488 signal (FACS binning) [3]: 9840 | PBMCs CD4+ percent bound of viable [4]: 32% | gMFI, SKW3 WT anti-hu Kappa FITC [5]: 4930 gMFI | OKT4a anti-hu A647 signal (FACS binning) [6]: 37200 | gMFI, SKW3 WT anti-mFc 647 [7]: 19000 gMFI | SKW3 WT vs KO, anti-mFc-647 (ratio) [8]: 3.6 ratio | RPA-T4-PE-Dazzle 594 signal (FACS binning) [9]: 2830 | Ibalizumab ELISA binning signal (huCD4-HIS): 385000 | PBMCs CD4+ gate RL1 Binding [10]: 263000 | SKW3 WT vs KO, anti-hKappa-FITC (ratio) [11]: 1.6 ratio

B6: 75110_14G10A (antibody, V domains shown)
VH: EVQLVESGGGLVKPGGSLRLSCAASGFTFSSYSMNWVRQAPGKGLEWVSFISSSSSYIYYADSVKGRFTISRDNAKNSLYLQMNSLRAEDTAVYYCARERGDDYGDYEGAFDIWGQGTMVTVSS
VL: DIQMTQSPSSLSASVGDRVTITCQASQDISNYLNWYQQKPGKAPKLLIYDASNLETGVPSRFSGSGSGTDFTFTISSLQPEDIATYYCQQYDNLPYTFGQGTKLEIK
notes: as for B2
binding result [2]: no binding (tested: 100 nM (highest of 100, 50, 25 nM))

B7: 75110_14P08A (antibody, V domains shown)
VH: QVQLQESGPGLVKSSETLSLTCTDSGDSIRSYYWNWIRQPAGKGLEWIGRIYASGSTNYNPSLKSRVIMSADTSKNRFSLKLSSVTAADTAVYYCARDGGVGDSLDYWGQGTLVTVSS
VL: DIVMTQTPLSLPVTPGEPASISCRSSQSLLDSDDGNTYLDWYLQKPGQSPQLLIYTLSYRASGVPDRFSGSGSGTDFTLKISRVEAEDVGVYYCMQRIEFPFTFGPGTKVDIK
notes: Tested as AlivaMab Mouse (AMM) antibody purified from hybridoma supernatant and captured through its mouse IgG Fc; also called ADS75110 purified AMM Ab 75110_14P08A; Sib8.2
Kd [1]: 330 pM | koff [1]: 3.2e-05 s⁻¹ | kon [1]: 96000 M⁻¹ s⁻¹

B8: 75110_14P08A (antibody, V domains shown)
VH: B7 VH
VL: B7 VL
notes: Tested as antibody purified from the AlivaMab Mouse hybridoma supernatant (chimeric AlivaMab; captured by anti-mouse IgG Fc sensors, human kappa light chain); also called ADS75110 purified AMM Ab 75110_14P08A; Sib8.2
Kd [12]: 8800 pM | koff [12]: 0.00066 s⁻¹ | kon [12]: 75000 M⁻¹ s⁻¹

B9: 75110_07J24A (antibody, V domains shown)
VH: QAQLQESGPGLVKPSETLSLTCTVSGGSISSYYYNWIRQPAGKGLEWIGRIYTSGRTDYNPSLKSRVTMSADTSKNQFSLKLSSVTAADTAVYYCARDEGPTDAFDIWGQGTMVTVSS
VL: B7 VL with Q51H, T75S
notes: as for B2
binding result [2]: no binding (tested: 100 nM (highest of 100, 50, 25 nM))

Reference: patent US20220112288A1 (published 2022)
